Test results: paper PMC4441847 (The Biochemical journal, 2015)

Biological target: Recombinant FEN-1 (pET-FEN-1) (human, UniProt P39748 1-380)
Test: pull-down

Chain of Recombinant FEN-1 (pET-FEN-1) (P39748 whole entry): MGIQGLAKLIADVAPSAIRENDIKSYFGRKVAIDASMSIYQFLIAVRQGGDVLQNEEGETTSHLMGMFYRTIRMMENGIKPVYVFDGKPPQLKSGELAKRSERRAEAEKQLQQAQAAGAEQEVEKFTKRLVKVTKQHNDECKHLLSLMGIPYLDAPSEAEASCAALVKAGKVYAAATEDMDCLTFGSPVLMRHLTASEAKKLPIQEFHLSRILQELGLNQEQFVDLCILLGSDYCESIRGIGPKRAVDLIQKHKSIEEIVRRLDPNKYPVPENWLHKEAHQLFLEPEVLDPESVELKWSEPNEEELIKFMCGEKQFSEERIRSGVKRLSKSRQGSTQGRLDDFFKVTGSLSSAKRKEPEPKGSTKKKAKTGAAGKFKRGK

Binder | binding result
GST-RECQ1 C-terminal domain (residues 592-649) (domain or fragment, human, UniProt P46063 592-649, looked up) KSTQNSFRAESSQTCHSEQGDKKMEEKNSGNFQKKAANMLQQSGSKNTGAKKRKIDDA | binds
GST-RECQ1 RQC domain (residues 418-592) (domain or fragment, human, UniProt P46063 418-592, looked up) YGFGDIFRISSMVVMENVGQQKLYEMVSYCQNISKCRRVLMAQHFDEVWNSEACNKMCDNCCKDSAFERKNITEYCRDLIKILKQAEELNEKLTPLKLIDSWMGKGAAKLRVAGVVAPTLPREDLEKIIAHFLIQQYLKEDYSFTAYATISYLKIGPKANLLNNEAHAITMQVTK | binds
